Assay results as given in article PMC4384728 (The Journal of Cell Biology, 2015).

Experiments:
HA-VEGFR3-TMD = target: T1, HA-VEGFR3-TMD; assay: pull-down
T1 chain: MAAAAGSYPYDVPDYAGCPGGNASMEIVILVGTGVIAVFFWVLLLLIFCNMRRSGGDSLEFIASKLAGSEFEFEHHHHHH

HA-VEGFR2-TMD = target: T2, HA-VEGFR2-TMD; assay: pull-down
T2 chain: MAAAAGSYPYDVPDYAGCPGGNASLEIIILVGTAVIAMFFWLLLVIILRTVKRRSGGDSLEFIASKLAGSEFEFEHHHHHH

binding result (HA-VEGFR3-TMD): binds
binding result (HA-VEGFR2-TMD): binds
B1: Flag-VE-TMD (domain or fragment)
chain: MAAAAGSDYKDDDDKGCPGGNASVSIQAVVAILLCILTITVITLLIFLRRRSGGLNDIFEAQKIEWHESSEFEFEHHHHHH
